Test results published in US20260116991A1 (HAINAN SIMCERE ZAIMING PHARMACEUTICAL, published 2026).
Numbering of substitutions follows the chain as printed.

B1: F4.13.7 human-murine chimeric antibody (antibody, human IgG1, kappa, V domains shown)
VH: QVQLQQPGAELVKPGASVKLSCKASGYTFTNNWVHWVKQRPGQGLEWTGMIHPDSGSTIYNEKFQSKATLTVDKSSSTAYMQLSSLTSEDSAVYYCARGYYDSSSYYAMDYWGQGTSVTVSS
VL: NIQMTQTTSSLSASLGDRVTISCSASQGIFNYLNWYQQKPDGTVKLLIYYTSSLHSGVPSRFSGSGSGTDYSLTISNLEPEDIATYYCQQYSKLPWTFGGGTKLEIKR
B2: F3.54.12 human-murine chimeric antibody (antibody, human IgG1, kappa, V domains shown)
VH: QVQLQQSGAELVRPGASVKLSCKASGYTFTDYEMHWVKQTPVHGLEWIGAIDPETGNTAYIQKFKGKATLTTDKSSSTAYMELRSLTSEDSAVYYCTRFYSYSHWGQGTTLTVSS
VL: DVVMTQTPLSLPVSLGDQASISCRSSQSLVHSNGNTYLHWYLQKPGQSPKLLIYKVSNRFSGVPDRFSGSSSGTDFTLKISRVEAEDLGVYFCSQNTHVPPTFGGGTKLEIKR
B3: F4.26.1 human-murine chimeric antibody (antibody, human IgG1, kappa, V domains shown)
VH: QVQLKQSGPGLVQPSQSLSITCTVSGFSLTSYGVHWVRQSPGKGLEWLGVIWSSGNTDYNAVLISRLSIKKDDSKSQVFFKMNSPQVDDSAIYYCGRNGGWLLRGFMDFWGQGTSVTVSS
VL: B2 VL with V30L, K44R, P45S, K50N, S70G, S71G, V90I, N96S, P101W
B4: F4.21.16 human-murine chimeric antibody (antibody, human IgG1, kappa, V domains shown)
VH: DVQLQESGPGLVKPSQSLSLTCSVTGYSITSGYYWNWIRQFPGNKLEWMGYISYDVTVNYNPSLKNRISITRDTSKNQFFLKLNSVTTEDTATYYCATITSVASMDHWGQGTSVTVSS
VL: DILMTQTPLSLPVSLGDQASISCRSSQNIVHRNGNTYLEWYLQKPGQSPKLLLYKVSNRFSGVPDRFSGSGSGTDFTLKISRVEAEDLGIYYCFQGSHFPFTFGSGTKLEIKR
B5: F4.18.4 human-murine chimeric antibody (antibody, human IgG1, kappa, V domains shown)
VH: QVQLHQSGAEMAKPGASVNLSCKTSGFTFTDYGISWVKQRTRQGLEWIGDIYPRHINIYYNEKFKDKATLTADRSSSTAYMELRSMTSEDSAVYFCARRGTTGRGALDYWGQGTSLTVSS
VL: DILLTQSPAILSVSPGERVSFSCRASQSIGTSIHWYQQRTNGSPRLLIKYAFESISGIPSRFGGSGSRTDFTLTINSVESEDIADYYCQQTYNWPYTFGGGTKLEIKR
B6: F2.152.3 human-murine chimeric antibody (antibody, human IgG1, kappa, V domains shown)
VH: EVQLQQSGPELVKPGASVKMSCKASGYTFTDYYMTWVKQSHGKSLEWIGRVNPRNGDTTYNQKFEGRATLTLDKSLSTAFMQLNSLTSEDSAVYYCINSKGHFDYWGQGTTLTVSS
VL: DVLMTQTPLSLPVSLGDQASISCRSSQSIVHSNGNTYLEWFLQKPGQSPKSLIYKVSNRFSGVPDRFSGSGSGTDFTLKISRVEAEDLGVYYCFQGSHVPPTFGAGTKLELKR
B7: F3.81.19 human-murine chimeric antibody (antibody, human IgG1, kappa, V domains shown)
VH: B2 VH with A50T, I61N, T72A, F99P, Y102L, S103T, H104Y, T110L, L111V, S115A
VL: B6 VL with M4L, I29F, N35D, E39Q, F41Y, S51L, P101Y, A105S, L111I
B8: F3.38.7 human-murine chimeric antibody (antibody, human IgG1, kappa, V domains shown)
VH: QVQLQQSGAELVRPGASVKLSCKASGYTFTDYEIHWVKQTPVLGLEWIGAIDPKTGNTAYNQKFMGKATLTADKSSTTAYMDLRSLTSEDSAVYYCTRYFSFAYWGQGTLVTVSA
VL: B6 VL with S28T, I29F, E39Q, F41Y, S51L, P101Y, A105S, L111I
B9: hAb001H1L1 (antibody, human IgG1, V domains shown)
VH: EVQLVESGGGLVQPGGSLRLSCAASGFSFNTNAMNWVRQAPGKGLEWVGRIRSKSNNYATYYADSVKDRFTISRDDSKNSLYLQMNSLKTEDTAVYYCVRDGYYVLFAYWGQGTLVTVSS
VL: DIVMTQTPLSLPVTPGEPASISCRFSQSIVNSNGNTYLEWFLQKPGQSPQLLIYKVSNRFSGVPDRFSGSGSGTDFTLKISRVEAEDVGVYYCFQGSHVPFTFGQGTKLEIK
notes: Humanized F2.169.2; VH H1 + VL L1; expressed as human IgG1
B10: hAb007LH2L1 (antibody, human IgG1, V domains shown)
VH: EVQLVQSGAEVKKPGSSVKVSCKASGYTFTDYEMHWVRQAPGQGLEWMGTIDPETGNTAYNQKFKGRVTITADKSTSTAYMELSSLRSEDTAVYYCTRPYSLTYWGQGTLVTVSS
VL: B9 VL with F25S, I29F, N31H, N35D, E39Q, F41Y, F101Y
notes: Humanized F3.81.19; VH H2 + VL L1; expressed as human IgG1
B11: hAb001H2L1a (antibody, human IgG1, V domains shown)
VH: B9 VH with N79S
VL: B9 VL with N33D
notes: Humanized F2.169.2; VH H2 + VL L1a; expressed as human IgG1
B12: hAb001H1aL1a (antibody, human IgG1, V domains shown)
VH: B9 VH with D68G
VL: B9 VL with N33D
notes: Humanized F2.169.2; VH H1a + VL L1a; expressed as human IgG1
B13: hAb001H1L1a (antibody, human IgG1, V domains shown)
VH: B9 VH
VL: B9 VL with N33D
notes: Humanized F2.169.2; VH H1 + VL L1a; expressed as human IgG1
B14: hAb001H1aL1 (antibody, human IgG1, V domains shown)
VH: B9 VH with D68G
VL: B9 VL
notes: Humanized F2.169.2; VH H1a + VL L1; expressed as human IgG1
B15: hAb001H2L1 (antibody, human IgG1, V domains shown)
VH: B9 VH with N79S
VL: B9 VL
notes: Humanized F2.169.2; VH H2 + VL L1; expressed as human IgG1
B16: hAb001H2L1b (antibody, human IgG1, V domains shown)
VH: B9 VH with N79S
VL: B9 VL with G34A
notes: Humanized F2.169.2; VH H2 + VL L1b; expressed as human IgG1
B17: hAb001H1L1b (antibody, human IgG1, V domains shown)
VH: B9 VH
VL: B9 VL with G34A
notes: Humanized F2.169.2; VH H1 + VL L1b; expressed as human IgG1
B18: hAb001H1aL1b (antibody, human IgG1, V domains shown)
VH: B9 VH with D68G
VL: B9 VL with G34A
notes: Humanized F2.169.2; VH H1a + VL L1b; expressed as human IgG1

target: T1, murine GPC3-his protein (Sino Biological, Cat. No. 50989-M08B) (murine, UniProt Q8CFZ4 25-558); test: ELISA, coated murine GPC3-His;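 also: antigen coated on plates at 1 µg/mL, test antibody bound for 2 h at 37 °C, detected with HRP-conjugated secondary antibody and TMB substrate after acid stop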
T1 construct: Bought protein; also called murine GPC3 protein
T1 sequence (Q8CFZ4 25-558 limits assumed): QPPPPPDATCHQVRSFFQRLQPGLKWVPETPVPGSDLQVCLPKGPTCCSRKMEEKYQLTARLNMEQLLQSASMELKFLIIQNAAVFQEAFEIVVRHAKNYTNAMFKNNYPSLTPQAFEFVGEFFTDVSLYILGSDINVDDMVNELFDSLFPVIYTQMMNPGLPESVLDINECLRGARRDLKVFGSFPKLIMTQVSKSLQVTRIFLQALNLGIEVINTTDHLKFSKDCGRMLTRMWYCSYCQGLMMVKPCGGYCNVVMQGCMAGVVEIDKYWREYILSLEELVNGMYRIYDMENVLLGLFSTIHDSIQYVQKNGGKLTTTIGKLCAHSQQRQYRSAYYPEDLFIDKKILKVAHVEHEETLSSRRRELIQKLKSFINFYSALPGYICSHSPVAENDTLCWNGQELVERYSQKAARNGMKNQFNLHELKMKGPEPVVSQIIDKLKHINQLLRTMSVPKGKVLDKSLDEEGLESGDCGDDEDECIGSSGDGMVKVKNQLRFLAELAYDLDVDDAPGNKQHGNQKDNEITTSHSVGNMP

Binder	OD450 at 0.0001 nM antibody [OD450 nm]	OD450 at 0.001 nM antibody [OD450 nm]	OD450 at 0.01 nM antibody [OD450 nm]	OD450 at 0.1 nM antibody [OD450 nm]	OD450 at 1 nM antibody [OD450 nm]	OD450 at 10 nM antibody [OD450 nm]	OD450 at 100 nM antibody [OD450 nm]
B1	0.06	0.11	0.54	2.12	2.86	2.88	2.87
B2	0.11	0.05	0.05	0.05	0.05	0.09	0.34
B3	0.06	0.07	0.11	0.57	0.98	1.29	0.68
B4	0.05	0.05	0.04	0.09	0.05	0.05	0.08
B5	0.18	0.15	0.1	0.1	0.14	0.16	0.13
B6	0.05	0.12	0.67	1.94	2.54	2.53	2.47
B7	0.05	0.05	0.04	0.04	0.05	0.05	0.1
B8	0.06	0.06	0.05	0.04	0.05	0.06	0.12

target: T2, human GPC3 on CHO-K1-human GPC3 cells (CHOK1-hGPC3.2B5) (human, UniProt P51654 25-554); test: FACS, CHOK1-hGPC3.2B5 cells;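 also: flow cytometry of humanized antibodies binding to the cells over one hour in the cold, read as cell mean fluorescence intensity, with EC50 obtained by curve fitting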
T2 construct: whole, on cells

Binder	EC50 [nM]	Max MFI [MFI]
B9	0.313	3400
B10	6.56	6190
B11	6.17	2550
B12	1.63	2530
B13	3.65	2360
B14	0.269	3270
B15	0.359	3550
B16	0.455	3370
B17	0.399	3160
B18	0.325	3070

target: biotinylated labeled human GPC3 protein (produced in-house) (human, UniProt P51654 25-559, limits assumed, biotinylated (Dojindo, Cat. No. LK03); sites not stated); test: ELISA, biotinylated human GPC3 protein

Binder	OD450 at 0.0008 nM [OD450]	OD450 at 0.004 nM [OD450]	OD450 at 0.02 nM [OD450]	OD450 at 0.11 nM [OD450]	OD450 at 0.53 nM [OD450]	OD450 at 2.67 nM [OD450]	OD450 at 13.33 nM [OD450]	OD450 at 66.66 nM [OD450]
B9	0.162	0.341	0.926	2	2.64	2.67	2.72	2.74
B10	0.121	0.233	0.654	1.72	2.26	2.26	2.33	2.32
B11	0.096	0.141	0.437	1.53	2.27	2.42	2.57	2.58
B13	0.114	0.157	0.477	1.43	2.39	2.5	2.6	2.63
B14	0.184	0.327	0.874	1.85	2.33	2.42	2.54	2.67
B15	0.169	0.324	0.895	1.97	2.5	2.6	2.58	2.6
B16	0.154	0.287	0.787	1.94	2.46	2.52	2.53	2.67
B18	0.174	0.298	0.809	1.93	2.5	2.62	2.72	2.76
